B1: rClpP1S98A, catalytic serine mutant of recombinant ClpP1 of Leptospira interrogans (enzyme)
chain: not shown
B2: recombinant ClpP2 (rClpP2) of Leptospira interrogans, LIC11951 (enzyme, UniProt Q72R01 1-197, looked up)
chain: MPETEKIAEVFEELTGSKISKNFLDHRKIFLWGPVTDESSKDLVGKLLYLEMKDPGKKITFYINSPGGVVTSGMTVFDTIKMISSPVHTVCMGMAASMGSVLLAAGTKGERSIWPNGKVMIHQPSIGGQIVAPATDLKIHAEEILKTKTKLNQILADACGHPISKLEEDTDRDYYMDAEEAIKYGIVDKLATKIDFN
B3: rClpP2S97A, catalytic serine mutant of recombinant ClpP2 of Leptospira interrogans (enzyme, UniProt Q72R01 1-197, looked up)
chain: MPETEKIAEVFEELTGSKISKNFLDHRKIFLWGPVTDESSKDLVGKLLYLEMKDPGKKITFYINSPGGVVTSGMTVFDTIKMISSPVHTVCMGMAAAMGSVLLAAGTKGERSIWPNGKVMIHQPSIGGQIVAPATDLKIHAEEILKTKTKLNQILADACGHPISKLEEDTDRDYYMDAEEAIKYGIVDKLATKIDFN
B4: recombinant ClpP1 (rClpP1) of Leptospira interrogans, LIC11417 (enzyme)
chain: not shown

Experiments:
[1] = target: the molecule itself; experiment: native gel or EMSA
[2] = target: B4; experiment: ITC
[3] = target: the molecule itself; experiment: cross-linking
[4] = target: B2; experiment: ITC
[5] = target: the molecule itself; experiment: SEC

Row | Binder | binding result [1] | stoichiometry N [1] | Kd [2] | stoichiometry N [3] | dH [4] | stoichiometry N [4] | stoichiometry N [5]
1 | B1 | binds | – | – | – | – | – | –
2 | B2 | – | 14 | 2.02 ± 0.1 µM | 7 | – | – | –
3 | B3 | binds | – | – | – | – | – | –
4 | B4 | – | 21 | – | 7 | -30200 ± 2640 cal^–1 mol^–1 | 0.945 ± 0.05 | 14
